# How the values were obtained:
# [1] = test system: MIA-induced degenerative arthritis model; test: MIA-induced degenerative arthritis model; format: in vivo, C57BL/6J mice
# Procedure: As a degenerative arthritis model, 9-week-old specific pathogen free (SPF) male C57BL/6J mice were anesthetized, the area around the right knee joint was cleanly shaved, and 10 μL of MIA solution (monosodium iodoacetate 0.5 mg in 10 μL 0.9% sterile saline) was injected into the knee joint cavity to induce arthritis. From 3 days before MIA (monosodium iodoacetate) solution injection, Amuc_1409 or PEP001, PEP002, PEP003, PEP004, PEP005, PEP006, PEP007, PEP008, PEP009, PEP010, PEP011, PEP012, or PEP013 was dissolved in PBS buffer at a concentration of 6.7 μM and then injected into the mouse peritoneal cavity at 150 μL per animal once a day at the same time. On day 3 (0 days) after administration of Amuc_1409 or PEP001 to PEP013, an additional intraperitoneal injection was given 1 hour before MIA injection, the drug was intraperitoneally injected once a day at the same time after MIA injection, and the experiment was terminated on the 30th day after MIA injection. In the control group, the same volume of PBS buffer was injected intraperitoneally. After MIA injection, the diameter of the knee joint was measured using a caliper for 7 days at 2-day intervals (0, 1, 3, 5, and 7 days) to evaluate swelling caused by inflammatory changes of the joint. […] At this time, the weight bearing on the limb was lower as arthritis was more severe. The weight-bearing weight (g) of each of both paws was measured, and in this experiment, the value was expressed as the ratio (%) of the right hind limb with arthritis to the total hind limb. Weight bearing ratio (%)=weight-bearing weight of right hind limb with arthritis (g)/weight-bearing weight of both hind limbs (g)×100 After termination of the experiment, the test animals were sacrificed, then the knee joint tissue of the mouse was fixed with 10% neutral buffered formalin, and the bone was decalcified with a 0.5 M EDTA solution. Next, the joint tissue was embedded in paraffin to prepare a 5 μm joint section, and Safranin O staining was performed to histopathologically analyze the degree of damage to the cartilage tissue. At this time, the degree of damage to the cartilage tissue was evaluated by examining the degree of safranin O staining of the sections and scored according to OARSI (Osteoarthritis Research Society International grade) guidelines. The scoring criteria according to the OARSI guidelines are as follows (Table 1). [table]
# [2] = test system: non-alcoholic hepatitis model; test: High-fat diet-induced non-alcoholic steatohepatitis model, liver gene expression; format: in vivo, C57BL/6J mice; conditions: RT-qPCR; vs PBS buffer group
# Procedure: A non-alcoholic hepatitis model was induced by feeding a high-fat diet to 8-week-old SPF male C57BL/6J mice. The experiment for groups administered with Amuc_1409 and PEP001 to PEP005 was performed as follows. Mice fed a high-fat diet for 45 weeks were fed a high-fat diet for an additional 3 weeks, and Amuc_1409 was dissolved in PBS buffer at a concentration of 2.4 μM and then orally administered to the mice by 150 μL per animal at the same time once a day until the end of the experiment, or mice fed a high-fat diet for 8 weeks were fed a high-fat diet for an additional 3 weeks, and PEP001, PEP002, PEP003, PEP004, or PEP005 was dissolved in PBS buffer at a concentration of 2.4 μM and then orally administered to the mice by 150 μL per animal at the same time once a day until the end of the experiment. To the control group, PBS buffer was orally administered in the same manner. The experiment for groups administered with PEP006 to PEP013 was performed as follows. The non-alcoholic hepatitis model was induced by ad libitum feeding of a high-fat diet for 32, 50, or 53 weeks. Mice fed a high-fat diet for 50 weeks were fed a high-fat diet for an additional 3 weeks, and a novel tetrapeptide PEP006, PEP007, PEP008, PEP009, or PEP010 was dissolved in PBS buffer at a concentration of 0.2 μg/150 μL and then orally administered to the mice by 150 μL per animal at the same time until the end of the test, and mice fed a high-fat diet for 53 weeks were fed a high-fat diet for an additional 3 weeks, and a novel […] PEP011, PEP012, or PEP013 was dissolved in PBS buffer at a concentration of 0.2 μg/150 μL and then orally administered to the mice by 150 μL per animal at the same time until the end of the test. To the control group, PBS buffer was orally administered in the same manner. At the end of the experiment, a part of the liver harvested was homogenized with Trizol to extract RNA. Reverse transcriptase was added to the obtained RNA and reacted to synthesize cDNA, and SYBR Green and primers were added to perform quantitative real-time PCR (RT-qPCR), and then the expression levels of genes such as Tnfα, Il-1β, Il-10, and Il-1rn were quantified.
# [3] = test system: collagen induced arthritis (CIA) model; test: Collagen induced arthritis (CIA) rheumatoid arthritis model; format: in vivo, DBA/1J mice; conditions: vs PBS buffer group
molecule,measurement,setting,value
"Amuc_1409: SEQ ID NO: 15, functional fragment obtained by eliminating the leader sequence from SEQ ID NO: 14; protein derived from Akkermansia muciniphila (protein, Amuc_1409_fragment, protein derived from Akkermansia muciniphila) IPESSVPAAAVSSIKGAYPNAGPIEWDSEMHGMERIYEAEFRINGFQFDVKIAPDGKIVRIKEEIAASSLPEAVRASVLKRYPGCRIKEAEKITEGELVRYKVEVADSRDDYDVLIAPDGNILHVDR",weight bearing ratio,"[1]; 2 weeks and 4 weeks after MIA injection, vs PBS buffer group",significantly increased
same,"histopathological findings in knee joint tissue, safranin O staining",[1]; after termination of the experiment,only a slight loss of safranin O was observed in the cartilage zone and the overall cartilage morphology was maintained
same,diameter of the knee joint,"[1]; day 1 after MIA injection, vs PBS buffer group, i.p.",significantly decreased
same,thickness of the knee joint,"[1]; days 3, 5, and 7 after MIA injection, vs PBS buffer group",significantly decreased
same,degree of cartilage destruction by OARSI score,[1]; vs PBS buffer group,significantly decreased
same,"11-10, which is an anti-inflammatory index (liver gene expression)",[2],significantly increased
same,Il-1p gene expression in liver tissue,[2],significantly decreased
same,"Il-1rn, additional anti-inflammatory index (liver gene expression)",[2],significantly increased
same,arthritis index,[3]; after day 30 until the experiment end day,significantly decreased
same,thickness of the ankle joint,[3]; at the end of the experiment,significantly decreased
same,arthritis index,[3]; day 30 after the first CII injection,decreased close to a significant level
same,"histopathological changes in hind paw tissue (H&E): inflammatory cell infiltration, synovial proliferation, pannus formation",[3],significantly diminished
same,quantitative histopathological arthritis index,[3],significantly decreased or tended to decrease
same,swelling of the hind paws by macrophotography,[3],reduced overall

# From patent US20240209022A1, “NOVEL PEPTIDE HAVING ANTI-INFLAMMATORY AND TISSUE REGENERATIVE ACTIONS” (KOREA RESEARCH INSTITUTE OF BIOSCIENCE AND BIOTECHNOLOGY, priority 2020, published 2024)
